Measured values: the supplement of paper PMC9233669
Variants at the floor of the assay were thinned out.

Key:
[1] = tested on: biotinyl-Phe-oxazolone; test: self-aminoacylation, catalytic enhancement (BFO) (fold over background); higher = more active; k-Seq, kA / k0A0; sequences stand for … in GGGAAUGGAUCCACAUCUACGAAUUC…UUCACUGCAGACUUGACGAAGCUG
How it was run: (§1)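 Mutagenized RNA pools with a 21-nt variable region (0.43 μM) were reacted with each biotinyl-aminoacyl-oxazolone at 2–1250 μM for 90 minutes at room temperature, in 50 μL HEPES/NaCl/KCl/MgCl2/CaCl2 buffer containing 5% acetonitrile at pH 6.9–7.0. RNA captured on streptavidin was quantified by triplicate qPCR and by Illumina sequencing. The fraction reacted for each sequence was fit to a pseudo-first-order model with bootstrapping, and catalytic enhancement is the median kA divided by the uncatalyzed rate, taken as the low-activity peak of a bimodal Gaussian fit.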

[2] = tested on: biotinyl-Ile-oxazolone; test: self-aminoacylation, catalytic enhancement (BIO) (fold over background); higher = more active; k-Seq, kA / k0A0; sequences stand for … in GGGAAUGGAUCCACAUCUACGAAUUC…UUCACUGCAGACUUGACGAAGCUG
How it was run: as §1

[3] = tested on: biotinyl-Met-oxazolone; test: self-aminoacylation, catalytic enhancement (BMO) (fold over background); higher = more active; k-Seq, kA / k0A0; sequences stand for … in GGGAAUGGAUCCACAUCUACGAAUUC…UUCACUGCAGACUUGACGAAGCUG
How it was run: as §1

[4] = tested on: biotinyl-Val-oxazolone; test: self-aminoacylation, catalytic enhancement (BVO) (fold over background); higher = more active; k-Seq, kA / k0A0; sequences stand for … in GGGAAUGGAUCCACAUCUACGAAUUC…UUCACUGCAGACUUGACGAAGCUG
How it was run: as §1

[5] = tested on: biotinyl-Leu-oxazolone; test: self-aminoacylation, catalytic enhancement (BLO) (fold over background); higher = more active; k-Seq, kA / k0A0; sequences stand for … in GGGAAUGGAUCCACAUCUACGAAUUC…UUCACUGCAGACUUGACGAAGCUG
How it was run: as §1

[6] = tested on: biotinyl-Trp-oxazolone; test: self-aminoacylation, catalytic enhancement (BWO) (fold over background); higher = more active; k-Seq, kA / k0A0; sequences stand for … in GGGAAUGGAUCCACAUCUACGAAUUC…UUCACUGCAGACUUGACGAAGCUG
How it was run: as §1

Sequence | self-aminoacylation [1] | self-aminoacylation [2] | self-aminoacylation [3] | self-aminoacylation [4] | self-aminoacylation [5] | self-aminoacylation [6]
AUUACCCUGGUCUUCGAUUGA [Fam2.1 aminoacylation ribozyme variant] | 0.383 | 0.769 | 0.723 | 0.779 | 0.67 | 0.41
AUUACCCUGGUCUUCGGGUGA [Fam2.1 aminoacylation ribozyme variant] | 48.9 | 4.68 | 8.38 | 5.66 | 9.51 | 9.66
AUUACCCUGGUCUUCUAGUGA [Fam2.1 aminoacylation ribozyme variant] | 23.6 | 2.92 | 5.28 | 3.54 | 5.65 | 7.45
AUUACCCUGGUGAUAGAGUGA [Fam2.1 aminoacylation ribozyme variant] | 53.4 | 3.75 | 9.04 | 3.62 | 8.59 | 8.54
AUUACCCUGGUGAUCCAGUGA [Fam2.1 aminoacylation ribozyme variant] | 60.7 | 4.33 | 9.84 | 4.65 | 9.64 | 12.4
AUUACCCUGGUGAUCGAGAGA [Fam2.1 aminoacylation ribozyme variant] | 0.65 | 1.33 | 1.24 | 0.92 | 0.908 | 0.417
AUUACCCUGGUGAUCGAGUGU [Fam2.1 aminoacylation ribozyme variant] | 5.19 | 1.51 | 2.12 | 1.57 | 2.31 | 2.96
AUUACCCUGGUGAUCGAUUGA [Fam2.1 aminoacylation ribozyme variant] | 0.845 | 1.03 | 1.39 | 0.859 | 1.09 | 0.834
AUUACCCUGGUGGUCGAGUGA [Fam2.1 aminoacylation ribozyme variant] | 12.8 | 1.47 | 2.28 | 1.61 | 1.95 | 1.83
AUUACCCUGGUUAUCGAGGGA [Fam2.1 aminoacylation ribozyme variant] | 1.16 | 1.55 | 1.4 | 1.16 | 0.955 | 1.79
AUUACCCUGGUUAUCUAGUGA [Fam2.1 aminoacylation ribozyme variant] | 93.5 | 5.78 | 14.4 | 6.4 | 15.3 | 17.6
AUUACCCUGUACAUCGAGUGA [Fam2.1 aminoacylation ribozyme variant] | 71.1 | 5.18 | 12.5 | 6.19 | 11.6 | 13.2
AUUACCCUGUCCAUCGAGUGA [Fam2.1 aminoacylation ribozyme variant] | 70.4 | 5.63 | 10.6 | 5.38 | 11.3 | 14.8
AUUACCCUGUUCAUCGAGUUA [Fam2.1 aminoacylation ribozyme variant] | 0.909 | 1.19 | 1.13 | 1.12 | 1.12 | 0.616
AUUACCCUGUUCAUCGUGUGA [Fam2.1 aminoacylation ribozyme variant] | 43.7 | 3.1 | 6.29 | 3.04 | 6.24 | 8.71
AUUACCCUGUUCAUGGAGUGA [Fam2.1 aminoacylation ribozyme variant] | 62.8 | 5.12 | 11.1 | 5.28 | 11.4 | 11.8
AUUACCCUGUUCAUUGAGUGA [Fam2.1 aminoacylation ribozyme variant] | 83.6 | 5.73 | 13.8 | 5.4 | 12.7 | 16.3
AUUACCCUUCUCAUCGAGUGA [Fam2.1 aminoacylation ribozyme variant] | 30.8 | 3.51 | 6.6 | 3.65 | 6.53 | 9.57
AUUACCCUUGCCAUCGAGUGA [Fam2.1 aminoacylation ribozyme variant] | 35.2 | 3.09 | 6.18 | 3.18 | 5.63 | 7.05
AUUACCCUUGUCAUCGAAUGA [Fam2.1 aminoacylation ribozyme variant] | 0.805 | 0.946 | 0.839 | 1.09 | 0.89 | 0.552
AUUACCCUUGUCAUCGCGUGA [Fam2.1 aminoacylation ribozyme variant] | 85.5 | 5.26 | 10.7 | 5.9 | 13.6 | 14.3
AUUACCCUUGUCAUUGAGUGA [Fam2.1 aminoacylation ribozyme variant] | 34 | 4.11 | 8.1 | 4.34 | 8.5 | 10.6
AUUACCGUAGUCAUCGAGUGA [Fam2.1 aminoacylation ribozyme variant] | 26 | 2.94 | 4.79 | 3.22 | 5.83 | 7.23
AUUACCGUGGUCACCGAGUGA [Fam2.1 aminoacylation ribozyme variant] | 9.08 | 2.39 | 3.87 | 2.83 | 3.65 | 2.95
AUUACCGUGGUCAUAGAGUGA [Fam2.1 aminoacylation ribozyme variant] | 35.7 | 3.67 | 7.8 | 3.97 | 6.95 | 7.99
AUUACCGUGGUCAUCGCGUGA [Fam2.1 aminoacylation ribozyme variant] | 140 | 8.94 | 17.7 | 11 | 21.5 | 22.2

Sequence | self-aminoacylation [1] | self-aminoacylation [2] | self-aminoacylation [3] | self-aminoacylation [4] | self-aminoacylation [5] | self-aminoacylation [6]
AUUACCGUGGUCAUCUAGUGA [Fam2.1 aminoacylation ribozyme variant] | 31.2 | 3.29 | 6.98 | 3.82 | 6.26 | 7.82
AUUACCGUGGUCAUUGAGUGA [Fam2.1 aminoacylation ribozyme variant] | 28.2 | 3.37 | 5.36 | 3.21 | 6 | 7.1
AUUACCUUAGUCAUCGAGUGA [Fam2.1 aminoacylation ribozyme variant] | 14.8 | 2.71 | 4.41 | 2.59 | 4.62 | 5.48
AUUACCUUGGGCAUCGAGUGA [Fam2.1 aminoacylation ribozyme variant] | 17.4 | 2.87 | 5.33 | 2.91 | 5.27 | 6.65
AUUACCUUGGUCAUAGAGUGA [Fam2.1 aminoacylation ribozyme variant] | 25.4 | 3.58 | 6.82 | 3.69 | 7.24 | 9.04
AUUACCUUGGUCAUCAAGUGA [Fam2.1 aminoacylation ribozyme variant] | 3.79 | 1.97 | 3.32 | 1.92 | 3.54 | 4.02
AUUACCUUGGUCAUCGAGUGU [Fam2.1 aminoacylation ribozyme variant] | 3.39 | 2.19 | 3.47 | 2.37 | 3.59 | 3.8
AUUACCUUGGUCAUCGAUUGA [Fam2.1 aminoacylation ribozyme variant] | 0.71 | 0.907 | 0.916 | 0.824 | 0.855 | 0.601
AUUACCUUGGUCAUCGUGUGA [Fam2.1 aminoacylation ribozyme variant] | 16.2 | 1.53 | 2.55 | 1.57 | 2.71 | 3.57
AUUACCUUGGUGAUCGAGUGA [Fam2.1 aminoacylation ribozyme variant] | 19.7 | 2.25 | 4.39 | 2.32 | 4.39 | 5.81
AUUACCUUGUUCAUCGAGUGA [Fam2.1 aminoacylation ribozyme variant] | 26.1 | 3.4 | 6.95 | 3.95 | 6.6 | 8.47
AUUACGCUGAUCAUCGAGUGA [Fam2.1 aminoacylation ribozyme variant] | 15 | 3.16 | 5.61 | 3.36 | 5.8 | 6.11
AUUACGCUGGUCAACGAGUGA [Fam2.1 aminoacylation ribozyme variant] | 5.51 | 2.42 | 3.33 | 2.71 | 3 | 3.71
AUUACGCUGGUCAGCGAGUGA [Fam2.1 aminoacylation ribozyme variant] | 21.2 | 3.34 | 4.57 | 2.4 | 4.3 | 4.4
AUUACGCUGGUCAUCGAGUUA [Fam2.1 aminoacylation ribozyme variant] | 0.893 | 1.28 | 1.54 | 1.43 | 1.41 | 0.917
AUUACGCUGGUCAUCGAUUGA [Fam2.1 aminoacylation ribozyme variant] | 0.858 | 1.18 | 1.29 | 1.18 | 1.24 | 1.41
AUUACGCUGGUCGUCGAGUGA [Fam2.1 aminoacylation ribozyme variant] | 4.94 | 1.37 | 1.25 | 1.36 | 1.49 | 1.37
AUUACGUUGGUCAUCGAGUGA [Fam2.1 aminoacylation ribozyme variant] | 11.7 | 3.1 | 4.23 | 3.18 | 4.86 | 5.9
AUUACUCUGCUCAUCGAGUGA [Fam2.1 aminoacylation ribozyme variant] | 2.12 | 1.29 | 1.58 | 1.3 | 1.57 | 1.92
AUUACUCUGGACAUCGAGUGA [Fam2.1 aminoacylation ribozyme variant] | 30.9 | 2.93 | 5.55 | 2.83 | 6.1 | 8.33
AUUACUCUGGUCACCGAGUGA [Fam2.1 aminoacylation ribozyme variant] | 44.4 | 3.28 | 7.28 | 3.27 | 8.45 | 9.08
AUUACUCUGGUCAUCGAGUAA [Fam2.1 aminoacylation ribozyme variant] | 1.42 | 2.21 | 2.23 | 1.79 | 1.92 | 2.27
AUUACUCUGGUCAUCUAGUGA [Fam2.1 aminoacylation ribozyme variant] | 42.8 | 4.55 | 9.64 | 4.34 | 9.74 | 11.4
AUUACUCUGGUCGUCGAGUGA [Fam2.1 aminoacylation ribozyme variant] | 0.488 | 1.08 | 1.16 | 1.16 | 1.31 | 0.657
AUUACUCUGGUGAUCGAGUGA [Fam2.1 aminoacylation ribozyme variant] | 21.8 | 2.92 | 5.34 | 2.57 | 5.72 | 6.39
